Test results reported in the nanobody polyreactivity screen of Harvey et al. (2022).

Test: yeast display, Sf9 membrane polyspecificity reagent, FACS + sequencing; frameworks hold sequencing errors
How it was run: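 Nanobodies from a synthetic yeast display library (Saccharomyces cerevisiae BJ5465), induced 36–48 hours with galactose, were stained 1 hour at 4 °C with 10% biotinylated, detergent-solubilized Sf9 membrane reagent, enriched on streptavidin microbeads, then FACS-sorted. Anti-HA (expression) and streptavidin (reagent binding) fluorescence set low and high (top ~1%) gates. Polyreactivity labels come from the gate of origin. Genes were colony-PCR amplified, MiSeq 2 × 250 sequenced and filtered by CDR length.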

QVQLVESGGGLVQAGGSLRLSCAASGITFKPNTMGWYRQAPGKERELVAAIDWSGSSTYYADSVKGRFTISRDNAKNTVYLQMISLKPEDTAVYYCAADDYEYFWSYDYWGQGTQVTVSS
polyreactivity (PSR sort gate): low polyreactivity

QVQLVESGGGLVQAGGSLRLSCAASGITFKRYAMGWYRQAPGKERELVAAITWRGARTYYADSVKGRFTISRDNAKNTVYLQMNSLKPEDTAVYYCAADGYSGSGPYDYWGQGTQVTVSS
polyreactivity (PSR sort gate): high polyreactivity

QVQLVESGGGLVQAGGSLRLSCAASGITFKRYAMGWYRQAPGKEREMVAAITGIGGSTYYADSVKGRFTISRDNAMNTVYLQMNSLKPEDTAVYYCAARNNKKYDYWGQGTQVTVSS
polyreactivity (PSR sort gate): high polyreactivity

QVQLVESGGGLVQAGGSLRLSCAASGITFKTNARGWYRQAPGKERELVAAINKRGGSTYYADSVKGRFTISRDNAKNTVYLQMNSLKPEDTAVYYCARRYGEKFGGQGTQVTVSS
polyreactivity (PSR sort gate): high polyreactivity

QVQLVESGGGLVQAGGSLRLSCAASGITFLDNAMGWYRQAPGKERELVAAITSDGNTYYADSVKGRFTISRDNAKNTVYLQMNSLKPEDTAVYYCAARGFLKYVTEFDYWGQGTQVTVSS
polyreactivity (PSR sort gate): low polyreactivity

QVQLVESGGGLVQAGGSLRLSCAASGITFLEYAMGWYRQAPGKERELVATINSGGSTNYADSVKGRFTISRDNAKNTVYLQMNSLKPVDTAVYYCAADYGSDYTKGDYWGQGTQVTVSS
polyreactivity (PSR sort gate): low polyreactivity

QVQLVESGGGLVQAGGSLRLSCAASGITFLFYVMGRYRQERGKERELVSTINSDDTTYYADSVKGRFTISRDNAKNTVYLQMNCLKPEDTAVYYCAADTWLWYGFDHWGQGTQVTVSS
polyreactivity (PSR sort gate): high polyreactivity

QVQLVESGGGLVQAGGSLRLSCAASGITFLKNAMGWYRQAPGKERELVAAISSSGGSTYYADSVKGRFTISRDNAKNTVYLQMNSLKPEDTAVYYCAAYPTSTVVDDFDYWGQGTQVTVSS
polyreactivity (PSR sort gate): high polyreactivity

QVQLVESGGGLVQAGGSLRLSCAASGITFLKNAMGWYRQAPGKESELVAAISSSGGSTYYADSVKGRFTISRDNAKNTVYLQMNSLKPEDTAVYYCAARIYWYTPGRRGYTYDYWGQGTQVTVSS
polyreactivity (PSR sort gate): high polyreactivity

QVQLVESGGGLVQAGGSLRLSCAASGITFLNYAMGWYRQAPGKERELVAAIDTRGGRTNYADSVKGRFTISRDNAKNNVYLQMNSLKPEDTAVYYCAADPFYWYRSVRGEYWGQGSQVTVSS
polyreactivity (PSR sort gate): low polyreactivity

QVQLVESGGGLVQAGGSLRLSCAASGITFLNYAMGWYRQAPGKERELVAAIDTRGGRTNYADSVKGRFTISRDNAKNTVYLQMNSLKPEDTAVYYCNALGYYVHKMDYWGQGTQVTVSS
polyreactivity (PSR sort gate): low polyreactivity

QVQLVESGGGLVQAGGSLRLSCAASGITFLNYAMGWYRQATGKERELVAANDTRGGRTNYADSVKGRFTISRDNAKNTVYLQMNSVKPEDTEVYYCYALGYYVHKMDYWGQGTQVTVSS
polyreactivity (PSR sort gate): low polyreactivity

QVQLVESGGGLVQAGGSLRLSCAASGITFLPYAMGWYRQAPGKERELVAAITRGGGSTYADSVKGRFTISRDNAKYTVYLQMKSLKPEDTAVYYCAKRLGRVSWYEDYDYWGQGTEVTVSS
polyreactivity (PSR sort gate): low polyreactivity

QVQLVESGGGLVQAGGSLRLSCAASGITFLPYARGWYRQAPGKERELVAAITRGGGSTYADSVKGRFTISRDNAKNTVYLQMNSLKPEDTAVYYCAKRYGRVSWYEDYDYWGQGTQVTVSS
polyreactivity (PSR sort gate): low polyreactivity

QVQLVESGGGLVQAGGSLRLSCAASGITFLRNTMGWYRQAPGKERELVAAISRCGSTYYADSVKGRFTISRDNAKNTVYLQMNSLKPEDTAVYYCNAPSYVQATDYDYWGQGTQVTVSS
polyreactivity (PSR sort gate): high polyreactivity

QVQLVESGGGLVQAGGSLRLSCAASGITFLRYAMGWYRKSPGKERELVARISSGGRTDYADSVKGRFTISRDNAKNTVYLQMNSLKPEDSAVYYCNATVYEWHTEYDYWGQGTQVTVSS
polyreactivity (PSR sort gate): high polyreactivity

QVQLVESGGGLVQAGGSLRLSCAASGITFLSNAMGWYRQAPGKERELDAAISRGGGTTYYADSVKGRFTISRDIAKNTVYLLMNCLKPEDTAGSYCGTESTHTRRYWYEYWGLGTQVTVSS
polyreactivity (PSR sort gate): high polyreactivity

QVQLVESGGGLVQAGGSLRLSCAASGITFLVYAMGWYRQAPGKERELVAAISADAGGTYYADSVKGRFTISRDNAKNTVYLQMNSLKPEDTAVYYCNVDGRSDGDDYWGQGTQVTVSS
polyreactivity (PSR sort gate): low polyreactivity

QVQLVESGGGLVQAGGSLRLSCAASGITFLYYAMGWYRQAPGTERELVAAITSSGGRTYYADSVKGRFTISRDNAKNTVCLQMNSLKPEDTAVYYCAADSRTYNGGYYWGQGTQVTVSS
polyreactivity (PSR sort gate): high polyreactivity

QVQLVESGGGLVQAGGSLRLSCAASGITFNFYAMGWYRQAPGKERELVAAITQSGGSTYYADSVKGRFTISRDNAKNTVYLQMNSLKPEDTAVYYCAAARTGHMYYWGQGTQVTVSS
polyreactivity (PSR sort gate): high polyreactivity

QVQLVESGGGLVQAGGSLRLSCAASGITFNGYVMGWYRQAPGKERELVAAITSGARTYYADSVKGRFTISRDNAKNTVYLQMNSLKPEDTAVYYCAASIWLYRYYYWGQVTQVTVSS
polyreactivity (PSR sort gate): high polyreactivity

QVQLVESGGGLVQAGGSLRLSCAASGITFNLYAMGWYRQAPGKEREFVAVITASGSSTYYADSVKGRFTISRDNAKNTVYLQMNSLKPEDTAVYYCAARWHIYYFSYVTSYAYGYWGQGTQVTVSS
polyreactivity (PSR sort gate): high polyreactivity

QVQLVESGGGLVQAGGSLRLSCAASGITFNRYVMGWYRQAPGKERELVAANSRTGGSTYYADSVKGRFTISRDTGKNTVYLQMNILKPEDTAVYYCAAATSPGIYDYWGQGTQVTVSS
polyreactivity (PSR sort gate): high polyreactivity

QVQLVESGGGLVQAGGSLRLSCAASGITFNWYAMGWYRQAPGKERELVAAISGSGGRTYYADSVKGRFTISRDYPKNTVYLQMTSLKPEDTAVYYCNKVPYYAGQNYVYWGQGTQVTVSS
polyreactivity (PSR sort gate): high polyreactivity

QVQLVESGGGLVQAGGSLRLSCAASGITFNYAMGWYRQAPGKERELVAAISRRGGSTYYADSVKGRFTISRDNAKNTVYLQMNSLKPEDTAVYYCNTTVWGSYYYWGQGTQVTVSS
polyreactivity (PSR sort gate): high polyreactivity

QVQLVESGGGLVQAGGSLRLSCAASGITFPENDMGWYIKAPGKEREFDADITSSGGNTYYADSVKGRFTISRDNAKNTVYLHMNSLKPEDSAVYYCNADDGYFYVYQGWYDEMDYWGQGTQVTVSS
polyreactivity (PSR sort gate): high polyreactivity

QVQLVESGGGLVQAGGSLRLSCAASGITFPGYAMGWYRQAPGKERELVAAISDSGSSTYYADSVKGRFTISRDNAKNTVYLQMNSLKPEDTAVYYCAAVSGFYDQYDYWGQGTQVTVSS
polyreactivity (PSR sort gate): low polyreactivity

QVQLVESGGGLVQAGGSLRLSCAASGITFPGYAMGWYRQAPGKERELVAAISTSGGSTYYADSVKGRFTISRDNAKNTVYLQMNSLTPDDTAVYYCNARLVYYSYEEMDYWGQGTQVTVSS
polyreactivity (PSR sort gate): low polyreactivity

QVQLVESGGGLVQAGGSLRLSCAASGITFPINAMGWYRQAPGKEREFVATISFSGASTYYADSVKGRFTISRDNAKNTVYLQMNSLKPEDTAVYYCAADLSLSTGGRAFPTYGYWGQGTQVTVSS
polyreactivity (PSR sort gate): high polyreactivity

QVQLVESGGGLVQAGGSLRLSCAASGITFPLYAMGWYRKAPGKERELVATISGRGGSTYYADYVKGRFTISRDNAKNTVYLQMNSLIPEDTAVYYCNADFRSPYFLLSWYHSGDYWGLGTQVTVSS
polyreactivity (PSR sort gate): low polyreactivity

QVQLVESGGGLVQAGGSLRLSCAASGITFPRYAMGWYRLAPGKERELVATITRSGGGTYYADSVKGRFTISRDNAKNTVYLQMKSLKPEDTAVYYCAAGALQRGVYGYGYWGQGTEVTVSS
polyreactivity (PSR sort gate): high polyreactivity

QVQLVESGGGLVQAGGSLRLSCAASGITFPYYAKGWYRQAPGKERELVAGISRSGGRTYYADSVKGRFTISRDNAKNTVYLQMNSLKPEDTAVYYCNARKNLLSVTFDYWGQGTQVTVSS
polyreactivity (PSR sort gate): high polyreactivity
